T1: 3xFLAG-Hsf1 (S. cerevisiae, UniProt P10961 1-833)
T1 construct: The text prints 3xFLAG-Hsf1 and the legend prints rHsf1-3xFLAG, so the tag end is left open; also called rHsf1-3xFLAG; rHsf1; source: construct not described in the methods
T1 sequence (looked up): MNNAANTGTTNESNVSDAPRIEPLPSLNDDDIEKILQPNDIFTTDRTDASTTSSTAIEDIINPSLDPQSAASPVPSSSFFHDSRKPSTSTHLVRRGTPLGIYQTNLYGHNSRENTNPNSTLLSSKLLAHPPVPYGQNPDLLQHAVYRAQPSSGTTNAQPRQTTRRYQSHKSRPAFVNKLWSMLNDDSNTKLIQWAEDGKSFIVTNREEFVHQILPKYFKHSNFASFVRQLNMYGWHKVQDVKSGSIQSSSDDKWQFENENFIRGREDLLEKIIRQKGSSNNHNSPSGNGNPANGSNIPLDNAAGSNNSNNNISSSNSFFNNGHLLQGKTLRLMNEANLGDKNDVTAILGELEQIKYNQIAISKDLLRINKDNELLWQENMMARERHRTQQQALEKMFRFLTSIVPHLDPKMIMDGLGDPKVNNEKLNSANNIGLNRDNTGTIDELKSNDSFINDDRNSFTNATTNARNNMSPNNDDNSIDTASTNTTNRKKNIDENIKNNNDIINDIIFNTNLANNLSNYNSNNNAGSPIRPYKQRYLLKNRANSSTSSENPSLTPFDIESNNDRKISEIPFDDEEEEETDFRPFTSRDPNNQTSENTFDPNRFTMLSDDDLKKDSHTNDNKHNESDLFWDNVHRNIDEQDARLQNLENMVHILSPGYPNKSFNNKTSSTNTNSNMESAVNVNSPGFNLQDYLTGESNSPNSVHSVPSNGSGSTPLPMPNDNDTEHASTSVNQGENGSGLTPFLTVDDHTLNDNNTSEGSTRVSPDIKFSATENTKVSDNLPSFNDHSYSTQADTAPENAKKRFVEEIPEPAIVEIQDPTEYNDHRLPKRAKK

T2: Hsf1-6xHIS (S. cerevisiae, UniProt P10961 1-833)
T2 construct: Full-length wild type HSF1 cloned into pET32b with a C-terminal 6x-HIS tag; pET32b normally adds N-terminal thioredoxin, His and S tags; Plasmids are in Supplementary file 2; also called rHsf1; recombinant Hsf1; source: E. coli BL21(DE3), purified (Ni-NTA agarose, imidazole elution); not shown: 6xHIS, C-terminal, kept
T2 sequence (looked up): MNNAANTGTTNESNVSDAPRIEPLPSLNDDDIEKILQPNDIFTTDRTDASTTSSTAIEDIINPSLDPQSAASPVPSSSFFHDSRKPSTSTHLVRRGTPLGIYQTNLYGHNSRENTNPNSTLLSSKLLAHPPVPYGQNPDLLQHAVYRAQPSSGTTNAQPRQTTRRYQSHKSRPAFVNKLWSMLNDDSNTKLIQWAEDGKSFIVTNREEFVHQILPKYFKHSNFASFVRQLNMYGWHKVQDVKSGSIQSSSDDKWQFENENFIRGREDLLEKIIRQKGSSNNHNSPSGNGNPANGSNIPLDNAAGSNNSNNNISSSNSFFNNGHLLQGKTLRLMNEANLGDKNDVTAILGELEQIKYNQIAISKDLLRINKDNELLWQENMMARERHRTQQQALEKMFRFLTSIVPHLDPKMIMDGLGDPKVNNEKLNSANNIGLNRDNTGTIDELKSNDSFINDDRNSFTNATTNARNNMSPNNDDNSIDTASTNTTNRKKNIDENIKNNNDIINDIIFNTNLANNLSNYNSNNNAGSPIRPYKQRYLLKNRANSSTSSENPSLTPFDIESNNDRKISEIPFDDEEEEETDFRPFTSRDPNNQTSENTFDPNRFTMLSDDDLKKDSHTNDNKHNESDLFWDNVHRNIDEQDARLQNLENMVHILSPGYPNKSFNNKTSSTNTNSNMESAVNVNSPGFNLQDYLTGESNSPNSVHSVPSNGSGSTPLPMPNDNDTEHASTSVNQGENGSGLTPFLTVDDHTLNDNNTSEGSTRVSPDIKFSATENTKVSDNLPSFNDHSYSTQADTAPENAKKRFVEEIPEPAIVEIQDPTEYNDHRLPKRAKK

T3: Hsf1-6xHIS phosphorylated in vitro by casein kinase II (S. cerevisiae, UniProt P10961 1-833, phosphorylated by casein kinase II (mobility shift); sites not stated)
T3 construct: Full-length wild type HSF1 cloned into pET32b with a C-terminal 6x-HIS tag; also called rHsf1 pre-incubated with ATP and active CKII; phosphorylated Hsf1; source: E. coli BL21(DE3), purified (Ni-NTA agarose), then phosphorylated in vitro with casein kinase II (NEB); not shown: 6xHIS, C-terminal, kept
T3 sequence (looked up): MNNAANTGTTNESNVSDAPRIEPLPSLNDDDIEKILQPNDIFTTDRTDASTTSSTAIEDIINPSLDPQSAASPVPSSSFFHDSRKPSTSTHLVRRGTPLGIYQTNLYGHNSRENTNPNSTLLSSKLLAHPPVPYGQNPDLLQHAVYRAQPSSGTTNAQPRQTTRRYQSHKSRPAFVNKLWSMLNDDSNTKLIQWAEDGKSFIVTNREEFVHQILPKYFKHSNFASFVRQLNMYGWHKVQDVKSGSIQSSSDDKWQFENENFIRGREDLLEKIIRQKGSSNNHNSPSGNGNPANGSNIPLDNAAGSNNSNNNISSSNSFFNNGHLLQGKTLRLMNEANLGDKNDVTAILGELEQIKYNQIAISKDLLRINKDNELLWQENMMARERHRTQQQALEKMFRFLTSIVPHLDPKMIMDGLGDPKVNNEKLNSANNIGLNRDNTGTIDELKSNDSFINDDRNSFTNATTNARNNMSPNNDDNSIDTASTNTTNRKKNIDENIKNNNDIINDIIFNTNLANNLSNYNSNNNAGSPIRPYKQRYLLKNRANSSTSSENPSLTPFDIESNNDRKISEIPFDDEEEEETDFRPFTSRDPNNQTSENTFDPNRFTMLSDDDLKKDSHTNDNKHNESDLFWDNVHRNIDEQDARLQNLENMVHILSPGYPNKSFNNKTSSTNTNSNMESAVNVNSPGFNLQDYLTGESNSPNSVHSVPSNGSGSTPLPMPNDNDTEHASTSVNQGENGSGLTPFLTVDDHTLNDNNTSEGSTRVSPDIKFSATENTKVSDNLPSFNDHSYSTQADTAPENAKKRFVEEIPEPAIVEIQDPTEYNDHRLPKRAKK


Columns and labels:
Settings in all cases: both partners purified
[1] = molecular target: T4, Aβ42 peptide (UniProt P05067 672-713); test: co-IP; anti-FLAG IP of recombinant proteins with rHsf1-3xFLAG as bait, in the presence of five-fold molar excess (25 µM) of Aβ42 peptide as competitor
T4 construct: also called hydrophobic peptide

[2] = molecular target: T1, 3xFLAG-Hsf1; test: co-IP; anti-FLAG IP of recombinant proteins with rHsf1-3xFLAG as bait, Western blot anti-HIS for rSsa2; IP buffer alone or with 1 mM ATP
[3] = molecular target: T2, Hsf1-6xHIS; test: co-IP; anti-FLAG IP of recombinant proteins with 3xFLAG-rSsa2 as bait; rHsf1 pre-incubated with ATP alone, ATP and active CKII, or ATP and boiled CKII; Western blot anti-HIS for rHsf1
[4] = molecular target: T3, Hsf1-6xHIS phosphorylated in vitro by …; test: as above

T4 sequence (P05067 672-713): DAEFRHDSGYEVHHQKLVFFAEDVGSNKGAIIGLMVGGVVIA

| Binder | binding result [1] | binding result [2] | binding result [3] | binding result [4] |
| --- | --- | --- | --- | --- |
| recombinant Ssa2 (HIS-tagged, tags reversed) (natural protein, also called rSsa2; source: construct not described in the methods) not shown | binds | binds |  |  |
| 6xHIS-3xFLAG-Ssa2 (natural protein, Full length SSA2 cloned into pET32b with an N-terminal 6xHIS-3xFLAG tag; pET32b normally adds N-terminal thioredoxin, His and S tags; Plasmids are in Supplementary file 2; also called FLAG-rSsa2; 3xFLAG-rSsa2; source: E. coli BL21(DE3), purified (Ni-NTA agarose, imidazole elution); not shown: 6xHIS, N-terminal, kept; 3xFLAG, N-terminal, kept) not shown |  |  | binds | binds |
